The assay concerns the target T1, Ypp1 (residues 11–817), purified, GST tag removed (S. cerevisiae, UniProt P46951 11-817).
T1 sequence (looked up): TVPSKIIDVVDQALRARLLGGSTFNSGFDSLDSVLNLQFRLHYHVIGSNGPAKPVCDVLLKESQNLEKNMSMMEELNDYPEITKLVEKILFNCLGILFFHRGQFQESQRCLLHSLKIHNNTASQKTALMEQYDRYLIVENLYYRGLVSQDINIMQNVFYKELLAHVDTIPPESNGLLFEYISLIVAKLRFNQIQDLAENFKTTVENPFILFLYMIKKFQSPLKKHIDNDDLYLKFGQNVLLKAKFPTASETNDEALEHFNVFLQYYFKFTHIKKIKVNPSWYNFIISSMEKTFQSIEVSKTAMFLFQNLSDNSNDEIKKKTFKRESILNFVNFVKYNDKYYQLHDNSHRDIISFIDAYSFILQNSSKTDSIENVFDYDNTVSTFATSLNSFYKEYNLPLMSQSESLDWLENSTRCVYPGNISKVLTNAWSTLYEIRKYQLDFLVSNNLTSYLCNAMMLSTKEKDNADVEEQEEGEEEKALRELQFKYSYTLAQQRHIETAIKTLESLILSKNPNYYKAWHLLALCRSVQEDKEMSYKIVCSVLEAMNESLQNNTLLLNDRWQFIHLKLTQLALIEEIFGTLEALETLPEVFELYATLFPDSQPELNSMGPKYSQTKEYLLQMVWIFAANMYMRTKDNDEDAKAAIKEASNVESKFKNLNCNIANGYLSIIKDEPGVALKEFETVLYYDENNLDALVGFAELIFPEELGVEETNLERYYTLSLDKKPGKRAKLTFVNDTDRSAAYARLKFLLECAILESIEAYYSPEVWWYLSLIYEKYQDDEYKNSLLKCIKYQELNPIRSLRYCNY
The assay is described as follows: pull-down.

B1: GST-Efr3-C_(651–730) (domain or fragment, S. cerevisiae, UniProt Q03653 651-730, looked up)
chain: APKVSDLKKTMNEKNIPNNMKRDGSFRGSQSVKSRVTNITFLLNELKTFSDDANKIKDPDEENIVGLDKIDVARSNSLRL
As for B1, the binding result is listed as “binds”.

The values above are taken from article PMC4349574 (Developmental cell, 2013).
